FireProtDB (doi:10.1016/s0301-4622(99)00119-2)

B1: Cytochrome b5, P00171 (parent)
chain: MAEESSKAVKYYTLEEIQKHNNSKSTWLILHYKVYDLTKFLEEHPGGEEVLREQAGGDATENFEDVGHSTDARELSKTFIIGELHPDDRSKITKPSESIITTIDSNPSWWTNWLIPAISALFVALIYHLYTSEN

Variants of: B1
Details: Bos taurus, pH 7, Thermal, Absorbance, Sodium phosphate 100 mM, structure 1CYO, whole UniProt chain shown

| Variant | ddG of mutation (higher = less stable) (77.6 °C) | ddG of mutation (higher = less stable) (66.7 °C) |
| --- | --- | --- |
| V50H | 1.39 kcal/mol | – |
| V50E | 2.06 kcal/mol | 2.68 kcal/mol |
| V50Y | 1.55 kcal/mol | 1.53 kcal/mol |
